Reference: patent US20110038861 (published 2011)
Like-named read-outs stand apart in the source and are kept apart here.

What was measured:
Abeta 1-40 [1] = target: Abeta 1-40 (human); assay: SPR
Abeta 1-40 [2] = target: Abeta 1-40 (human)
beta-APP = beta-APP (human); assay: ELISA
Abeta 1-40 [3] = target: Abeta 1-40 (human); remark: listed apart in the source

Chain of Abeta 1-40 (human) (P05067 672-711): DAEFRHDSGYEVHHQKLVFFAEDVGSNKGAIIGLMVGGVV
Chain of beta-APP (human) (chain, as listed by the source): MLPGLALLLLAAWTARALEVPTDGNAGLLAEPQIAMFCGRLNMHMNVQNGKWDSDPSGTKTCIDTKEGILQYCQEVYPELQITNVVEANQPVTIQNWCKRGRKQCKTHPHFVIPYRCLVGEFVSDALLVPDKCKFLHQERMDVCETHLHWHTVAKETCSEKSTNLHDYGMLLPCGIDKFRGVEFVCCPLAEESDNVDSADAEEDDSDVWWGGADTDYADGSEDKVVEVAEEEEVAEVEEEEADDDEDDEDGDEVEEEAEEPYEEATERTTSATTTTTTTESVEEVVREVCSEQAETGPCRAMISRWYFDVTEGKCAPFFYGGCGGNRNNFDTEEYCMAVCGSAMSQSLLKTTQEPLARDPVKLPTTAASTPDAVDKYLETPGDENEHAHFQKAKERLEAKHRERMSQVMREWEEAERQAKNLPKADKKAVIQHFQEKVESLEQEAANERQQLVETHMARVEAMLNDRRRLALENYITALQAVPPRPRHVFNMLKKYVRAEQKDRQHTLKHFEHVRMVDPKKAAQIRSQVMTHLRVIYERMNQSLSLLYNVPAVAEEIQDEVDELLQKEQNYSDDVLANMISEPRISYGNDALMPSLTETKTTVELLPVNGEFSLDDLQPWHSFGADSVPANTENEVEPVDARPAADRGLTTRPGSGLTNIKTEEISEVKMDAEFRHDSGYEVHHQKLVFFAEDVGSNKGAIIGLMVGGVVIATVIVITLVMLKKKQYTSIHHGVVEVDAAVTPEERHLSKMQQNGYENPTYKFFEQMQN

| Binder | Kd (Abeta 1-40 [1]) | Kd (Abeta 1-40 [2]) | binding result (beta-APP) | Kd (Abeta 1-40 [3]) |
| --- | --- | --- | --- | --- |
| 2286 (8A1.2A1) (antibody, V domains shown) VH: EVKLLESGGGLVQPGGSLKLSCAASGFDFSRYWMNWVRQAPGKGLEWIGEINPDSSTINYTPSLKDKFIISRDNAKNTLYLQMSKVRSEDTALYYCARQMGYWGQGTTLTVSS VL: DIQMTQTTSSLSASLGDRVTISCSASQGISNYLNWFQQKPDGTVKLLIYYTSSLHSGVPSRFSGSGSGTDYSLTISNLEPEDIATYYCQQYRKLPYTFGGGTKLEIKR |  | 0.0027 µM | no binding |  |
| 2324 (10B10.2E6) (antibody, V domains shown) VH: VTLKESGPGILKPSQTLSLTCSFSGFSLSTSGMGVGWIRQSSGKGLEWLAHIWWDDDKYYNPSLKSQLTISKDTSRNQVFLKITSVDTADTATYYCARRGVRHRDYFDYWGQGTTLTVSS VL: DVLMTQTPLSLPVSLGDQASISCRSSQSIVHSNGNTYLEWYLQKPGQSPKLLIYKVSNRFSGVPDRFSGSGSGTDFTLKISRVEAEDLGVYYCFQGSRVPLTFGAGTKLELKR |  |  | no binding | 0.0009 µM |

Next, values leading:

| Kd (Abeta 1-40 [1]) | Kd (Abeta 1-40 [2]) | binding result (beta-APP) | Kd (Abeta 1-40 [3]) | Binder |
| --- | --- | --- | --- | --- |
| 0.076 µM |  |  |  | Mouse 2286 Fab (antibody, V domains shown) VH: EVKLLESGGGLVQPGGSLKLSCAASGFDFSRYWMNWVRQAPGKGLEWIGEINPDSSTINYTPSLKDKFIISRDNAKNTLYLQMSKVRSEDTALYYCARQMGYWGQGTTLTVSS VL: DIQMTQTTSSLSASLGDRVTISCSASQGISNYLNWFQQKPDGTVKLLIYYTSSLHSGVPSRFSGSGSGTDYSLTISNLEPEDIATYYCQQYRKLPYTFGGGTKLEIKR |
| 0.5 µM |  |  |  | Humanized 2286 Fab (O8; VH3) (antibody, V domains shown) VH: EVQLVESGGGLVQPGGSLRLSCAASYWMNWVRQAPGKGLEWVSEINPDSSTINYTPSLKDRFTISRDNAKNTLYLQMNSLRAEDTAVYYCARQMGYWGQGTTLTVSS VL: DIQMTQSPSSLSASVGDRVTITCSASQGISNYLNWYQQKPGKAPKLLIYYTSSLHSGVPSRFSGSGSGTDFTFTISSLQPEDIATYYCQQYRKLPYTFGGGTKVEIKR |
| 0.5 µM |  |  |  | Humanized 2286 Fab (O8; VH4) (antibody, V domains shown) VH: QVQLQESGPGLVKPSETLSLTCTVSYWMNWIRQPPGKGLEWIGEINPDSSTINYTPSLKDRVTISKDTSKNQFSLKLSSVTAADTAVYYCARQMGYWGQGTLVTVSS VL: DIQMTQSPSSLSASVGDRVTITCSASQGISNYLNWYQQKPGKAPKLLIYYTSSLHSGVPSRFSGSGSGTDFTFTISSLQPEDIATYYCQQYRKLPYTFGGGTKVEIKR |
